Data as given in a protein production outcome set (Wang et al. 2014).

Experiment: label from the status in PepcDB records

Sequence	protein production
MRRFLLSAAKILVSAALLYLALRKTDFAALAARIDATSFGWLAAAVAATIFQLFVNAVRWRAIGACCEAPLTTGRSMRYAMIGSFFNQTLPSAIGGDAVRVWLLARAGAGWRAATYSVFVDRATGLIALSAIIFVTLPWTLRLIDNADGRLGLMLLDFAALGAGVVFLTLPFLRFGLLDRIWATRHMRGCSEVALKALSSPKSAVILIATSLIIPILAVVIAWCVARAIESPSSFVQLFELVPPIMLITMIPISIAGWGVREASMGLAFGYAGLNPSDGVAVSLLFGAVYFVVGGIGGLIWIMSAEKAAKGDAPIEVPE	failed
MRRLLVALCLLTVVLGSTSALAQARNQLGPLCTTETTPADKMVDACTKIIALKVFKGEQLATVYFWRAVGWNKKGDYAKVITDATEAIRLQPSQAVYNLRGSAYYDKGDYDIAIADFDDALKLGPPSGIIFHNRGNAWRGKHDYTKAIADYDMSIKADPKSAFSFQNRGISKEALGDLDGALADINQAIRLDPTLPQPLINRTSIWRAKGDLDRAIADGSEAIRLAEKKPPANIMTPPNSVLISGYTHRALAYEAKGDYARARDDYKATLAIVASDAGSKANQATAKVRLSLVSDAAVPIPRDAPSPTTQPTAAPAPQQTGAASAPSPAPAVRGTRMALIIGNGAYAHVKALPNPPNDARAVAKSLRDIGFTVSEGVDLDRAAMQKMTRDFLRDAARAQVAVVYYAGHGVQVDGRNYLIPVDVELKPGTAMTEAMIDMDTIMAGLDDQVRTNILIFDACRNNPMAQQVASAAANRGIEGASGLAAPTSLGAGATLGAGTLIAFATAPGQVALDGDGANSPFSAALSRHIGTLGLEVQQMLTRVRAEVVSTTKNKQVPWSNSSLLGEVYLAEK	failed
MRRPAVTAGPAHVLQRPVKPDLSAILHCVQNCTGCRTVRQARPQRGDQIRVTFLCILSSVFPNDQTDHLRSVRPSGFRYRPRHLNSGLAPLPGTLLEEVSMRNPVLTVTPLALTLILSAAGAQSLQAAQSLYDQGKWQEAATAAAALKTSDGYALAAEATTNGAGLVADSQKKALFAKAQDYAKQAIAADKNNPEAYFELARAQGRLAQFSGILQSLGMAKDMKQNLDTAIKLKPNMASAYVALGLWNANLDSKGAIARSATGASKAQVVPNFEKAIALEANTPIHRVEYANALLLQGNKAGARAQLEKAAGMGADNFWEKRDVATAQAMLAKLK	failed
MRRQPSLTLRSTLAFALVAMLTVSGAGLYLYQSIEQTVLQRSDHAVLARLDHFRKLLRYDLTMDNLKGSPQLFENMLDSEEDIFIIGEPGKPPVVSVNPQHAPLPDLPTVAQDQPLRVDDLRSGMSLQGVPLRAAAAQVMSNGVEVRLQAAHLMVKEMAMLASFRQSIYIAVALAFLITAVLGYVLLRRGLRPLRKMAAHAAAITPASLHKRLDSHDTPVELQQLSNAFNAMLDRIDDGYRRLMQFSADLAHEIRTPVGSLMGHCQVALRQDRSVDEYQALLASNLEELERISRLVESILFLARADEAQAALERQPLDLHDELQRVAGYFEGLADERNLKLSPSGRGTLLADPILLRRALSNLVANAIRYADEDSEILIRVVTVDQQWRIEVENQGPVLPHATLARLFDRFYRGDASRHERSDSNGLGLAIVTAIMHLHGGCVEVAQPAVGRICFSLVFPAA	failed
MRRRKYPWKQADILIHRYCRRLTTGQRLAVIAVAFALFMAGCLYMLLSSLLGFGETGGGLQIEHIRPLDIKPEKDTTIHFKDYYDYGHSENQDTVRLVC	failed
MRRRVAYARDYGDHIMGKFKFPTAYTILFVLIALVAAMTWIVPAGKYQMVTNAALGKEVPVAGTYAPVEAQPQGITAVLLAPIDGLYNHQTYTAGAIDVALFVLIIGGFLGVVNKTGAIDAGIERVTTRLNGREEWMIPILMALFAAGGTIYGMAEESLPFYTLLVPVMMAARFDPLVAAATVLLGSGIGTLGSTINPFATVIAANAAGIPFTQGILLRVILLLVGYVICVYWVMRYARKVRNSPESSIVADKMAENQAHFLGNRSETMLEFTPTRKAILILFAASFAFMIYGVAVLGWWMAEISAVFLAAAVIVGVIARMGEETFTSTFIDGARDLLGVALIIGIARGIVVVMDNGMITHTILHSAENLVSGLSTTVFINVTYWLEVLLSFLVPSSSGLAVLTMPIMAPLADFAHVQRDLVVTAYQSASGVVNLITPTSAVVMGGLAIARVPWVRYLRWVAPLLLILTMLNMIVLSIAAMI	failed
MRRSDLHGTSIEIERKNVGERRYITGFDGLRVMALLGVIFYHLMPFTVPGGYLGVPIFFAVSGYLITDIFIQEWDRTGKIKLGSFYIRRLRRLYPTLVMVLVTSTAYMTLFAQNLLSHIRNIIWTNLVFVYNWWLVNNGQSYFDRYNGESPFTHLWYLSVLAQYYFIWPLILIVLLKIFGERRVQASGILFSLSIISSMLMTILYHPDTVNRVYYGSDTRVAPFLIGAALAFIWPSTRLKKALNARTNLIANILGGILILVMGITFFTMPGTTATPYYGGIFIFSILAVLMIAIIAHPSFMWNRLLTNPVFKWLGSRSYGIYMYQLPVMIFYEQKVTNIAAHPVLNTLAPLVIILVISELSYRYIEIPLAKFDYRQTFALLKKIFDLKSNLQWRRYLAIPAVLVVLIALFGAVTSPEKVVQKTDGLQTKLAKNSKEADKKNKEALEKQKETSAAKTKQKKAKLTKQEKEIAKKYQLTDQEMKFAAVTPLTGVGDSVLEDTGADLQEIFPTAYMSSKVGRQVDEAPGIIAELKRQKTLSDNVLINLGANGPISDKDVKAVEDAVGSKRHIFWVNVHVPTKTWEGSVNKTLDKATKQYKNLTVIDWFTPSKNQPGWFYGDYVHPNPDGSKQYATIVAKKIIKTLNK	failed
MRRVVIRTEALSCPLDGDEDSNELRLRPLVPDAQEWKYPKSKLFPRHAAWSCHSGGGGGGGGGRVFTNKVNAVEEFNLGGLKDSESDSDSE	failed
MRSETVSTHTKPVRPEPPAPAAEVPAGAFPPGQERDHDTRPSAPPRDQSPPPAPEADSRSAARPAPPTHPGTSSTVWVRRRLARLGAQRGTTMNPVLEPLVKTVRATHPKADIRLIERAYDVAAHYHRSQKRKSGDPYITHPLAVATILAELGMQEATIAAGLLHDTVEDTEYTLDQLRSDFGDEIAELVDGVTKLDKVKYGEATQAETVRKMVVAMARDIRVLVIKLCDRLHNMRTLRYLPQAKREKKARETLEIYAPLAHRLGMNTIKWELEDLAFATLYPKRFDEIARLVAERAPRRDVYLQEVIEIVSADLREAKIKATVRGRPKHYYSIYQKMIARNVGFDEIYDLVGIRVIVDSVRDCYAALGIIHARWNPVPGRFKDYIAMPKFNMYQSLHTTVIGPEGSPVELQIRTRAMHRRAEYGIAAHWKYKEERNNGGKAKGASTDMAWLRQLIDWQQETKDPGEFLESLRFDLSVQEVFVFTPRGDVIALPQGATPVDFAYAVHTEVGHRTVGARVNGRLVPLDSELHNGETVEIITAKTDDAGPSRDWLDFVKSARARNKIRQWFTKERREAAIEQGKEAIAKVMRKQELPVQRLFTSESLIALAHDLRYRDLDALYAAVGENQISAHKVVEKLIESVGSLDNNEEDIAEATTPIRVPRKRPTGNPGVVVQGDPDVWVRLSKCCTPVPGDAIIGFVTRGAGVSVHRDDCGNVKHLDPDRLVQVEWQPTGNSMFLVALQIEALDRTRLLSDITRVLSDQHVNILSATVQTTRDRVALSRFTFEMADPAHLGHVLKAVRSVDGVYDVYRVRN	failed
MRSFILRARSAPTDSQRLLDEIGGKCHTEILAHCMMNSLFTAQSHREDVVIHLVLESTRDYSRTITVEANEISDVGGFHEAALIALLVKALDASVGMGKEQTRVVQPGLTVRTISFEALLGELAEHHSLYMMDKKGDSIRDIKIGPNPCFILTDHIPMPKKSGNSMKRLGVEKISLGPKMLFASQCVTLIHNEIDHQEA	not failed
MRSFLKRTQCAQLRSTPSLIFSTGITHPAETALQRFKFLMYQVVASDLDGTLLSPDHTLSPYAKEPLKLLTARGINFVFATGRHHVDVGQIRDNLEIKSYMITSNGARVHDLDGNLIFAHNLDRDIASDLFGVVNDNPDIITNVYRDDEWFMNRHRPEEMRFFKEAVFKYALYEPGLLEPEGVSKVFFTCDSHEQLLPLEQAINARWGDRVNVSFSTLTCLEVMAGGVSKGHALEAVAKKLGYSLKDCIAFGDGMNDAEMLSMAGKGCIMGSAHQRLKDLHPELEVIGTNADDAVPHYLRKLYLS	failed
MRSISTGRMIDDSSDSVKGSVVWVPAKSIWITTMTVVAVVGGPLTFSWSAVIVFVLSTAITICLGHSVGMHRLLIHRSFSAPLWLEHLLVYLGTLVGMAGPFGMIYAHDIRDWAQRQRDCHDLYAHRRSFFVDALWQMHCAVALDEPPRFVVEERARHDRFYRLLEATWMAQQIPLALLLFSLGGLPWLVWGIAVRISVSLTGHWLVGHFAHRNGHQGWSVDDVAVQGYNLPRFGLVTFGESFHGNHHAFPESARLGIEPGQLDLGWHFIRLLAGLGLASAIKLPHTIVPRDGLRRVEVSGDTGEDHPVGQR	failed
